Results taken from PMC6937562, “Combining SPR with atomic-force microscopy enables single-molecule insights into activation and suppression of the complement cascade” (The Journal of Biological Chemistry, 2019).

What was measured:
Settings in all cases: both partners purified
[1] = target: T1, C3b (human, UniProt P01024 23-667; P01024 749-1663); assay: SPR; homemade HJEM2 chip (1% COOH, 99% OH), 313 RU C3b amine-coupled; FH flowed (2 μM to 3.9 nM); Biacore T200, 25 °C, HBS-P pH 7.4; 1:1 steady-state model
T1 construct: complement C3 beta chain, human; Immobilised by amine coupling, via the nascent thioester (physiological) or via the free thiol of hydrolysed C3b; the way is told in each assay's format; also called C3b(H2O); C3b-SH; source: bought: Complement Technologies, Inc. (human plasma-derived)

[2] = target: T1, C3b; assay: SPR; C1 chip, 144 RU C3b amine-coupled; FH flowed (2 μM to 7.8 nM, 2-fold series, duplicates); Biacore T200, 25 °C, HBS-P pH 7.4, 150 mM NaCl, 1 mM MgCl2; 1:1 steady-state model
[3] = target: T1, C3b; assay: SPR; homemade HJEM4 chip with maleimide groups, 240 RU hydrolyzed C3b coupled via its free thiol; FH flowed (2 μM to 3.9 nM); Biacore T200, 25 °C, HBS-P pH 7.4; 1:1 steady-state model
[4] = target: T1, C3b; assay: SPR; C1 chip, 196 RU C3b immobilised physiologically (seed C3b, then seven cycles of FB+FD and C3); FH flowed (2 μM to 7.8 nM); Biacore T200, 25 °C, HBS-P pH 7.4; 1:1 steady-state model
[5] = target: T1, C3b; assay: SPR; homemade HJEM7 chip (50% OH, 25% COOH, 25% propargyl), 144 RU C3b amine-coupled; FH (2 μM to 3.9 nM) or FH 19–20 (10 μM to 3.9 nM) flowed; Biacore T200, 25 °C, HBS-P pH 7.4; 1:1 steady-state model
[6] = target: T1, C3b; assay: SPR; homemade HJEM7 chip, 143 RU C3b amine-coupled and 174 RU 3′-sialyllactose clicked on; FH (2 μM to 3.9 nM) or FH 19–20 (10 μM to 3.9 nM) flowed; Biacore T200, 25 °C, HBS-P pH 7.4; 1:1 steady-state model

B1: factor H (natural protein, human, UniProt P08603 19-1231, looked up)
chain: EDCNELPPRRNTEILTGSWSDQTYPEGTQAIYKCRPGYRSLGNVIMVCRKGEWVALNPLRKCQKRPCGHPGDTPFGTFTLTGGNVFEYGVKAVYTCNEGYQLLGEINYRECDTDGWTNDIPICEVVKCLPVTAPENGKIVSSAMEPDREYHFGQAVRFVCNSGYKIEGDEEMHCSDDGFWSKEKPKCVEISCKSPDVINGSPISQKIIYKENERFQYKCNMGYEYSERGDAVCTESGWRPLPSCEEKSCDNPYIPNGDYSPLRIKHRTGDEITYQCRNGFYPATRGNTAKCTSTGWIPAPRCTLKPCDYPDIKHGGLYHENMRRPYFPVAVGKYYSYYCDEHFETPSGSYWDHIHCTQDGWSPAVPCLRKCYFPYLENGYNQNYGRKFVQGKSIDVACHPGYALPKAQTTVTCMENGWSPTPRCIRVKTCSKSSIDIENGFISESQYTYALKEKAKYQCKLGYVTADGETSGSITCGKDGWSAQPTCIKSCDIPVFMNARTKNDFTWFKLNDTLDYECHDGYESNTGSTTGSIVCGYNGWSDLPICYERECELPKIDVHLVPDRKKDQYKVGEVLKFSCKPGFTIVGPNSVQCYHFGLSPDLPICKEQVQSCGPPPELLNGNVKEKTKEEYGHSEVVEYYCNPRFLMKGPNKIQCVDGEWTTLPVCIVEESTCGDIPELEHGWAQLSSPPYYYGDSVEFNCSESFTMIGHRSITCIHGVWTQLPQCVAIDKLKKCKSSNLIILEEHLKNKKEFDHNSNIRYRCRGKEGWIHTVCINGRWDPEVNCSMAQIQLCPPPPQIPNSHNMTTTLNYRDGEKVSVLCQENYLIQEGEEITCKDGRWQSIPLCVEKIPCSQPPQIEHGTINSSRSSQESYAHGTKLSYTCEGGFRISEENETTCYMGKWSSPPQCEGLPCKSPPEISHGVVAHMSDSYQYGEEVTYKCFEGFGIDGPAIAKCLGEKWSHPPSCIKTDCLSLPSFENAIPMGEKKDVYKAGEQVTYTCATYYKMDGASNVTCINSRWTGRPTCRDTSCVNPPTVQNAYIVSRQMSKYPSGERVRYQCRSPYEMFGDEEVMCLNGNWTEPPQCKDSTGKCGPPPPIDNGDITSFPLSVYAPASSVEYQCQNLYQLEGNKRITCRNGQWSEPPKCLHPCVISREIMENYNIALRWTAKQKLYSRTGESVEFVCKRGYRLSSRSHTLRTTCWDGKLEYPTCAKR
notes: complement factor H, human, 155-kDa serum glycoprotein of 20 CCP modules; Free FH: flowed as analyte in SPR, or amine-coupled directly to the AFM tip; also called FH; CFH; source: isolated from human plasma (TCS Biosciences Ltd.)
Kd [1]: 50 nM | Kd [2]: 230 nM | Kd [3]: 180 nM | Kd [4]: 130 nM | Kd [5]: 70 nM | Kd [6]: 90 nM
